This is an account of results in publication PMC4703857.

The term Kd denotes a measure of binding affinity in units of concentration.

In assay [1] the target is haemoglobin:haptoglobin complex (UniProt P00738). In words: ITC. (ITC needs no label: the signal is the heat of the interaction.)
Assay [2] concerns the target human haemoglobin (human). In words: ITC.
Assay [3] deals with transferrin (Homo sapiens) (UniProt P02787). The following applies: cited from earlier work.
The target of assay [4] is Kingella denitrificans HpuA, wild type (Kingella denitrificans). The assay is described as follows: ITC.
The target of assay [5] is KdHpuA T124D (Kingella denitrificans). In words: NMR titration.
For assay [6], the target named is KdHpuA Δloop-1 (Kingella denitrificans). In words: NMR titration.
The target of assay [7] is Kingella denitrificans HpuA, wild type (Kingella denitrificans). In words: NMR titration.

Chain of UniProt P02787 (P02787 20-698): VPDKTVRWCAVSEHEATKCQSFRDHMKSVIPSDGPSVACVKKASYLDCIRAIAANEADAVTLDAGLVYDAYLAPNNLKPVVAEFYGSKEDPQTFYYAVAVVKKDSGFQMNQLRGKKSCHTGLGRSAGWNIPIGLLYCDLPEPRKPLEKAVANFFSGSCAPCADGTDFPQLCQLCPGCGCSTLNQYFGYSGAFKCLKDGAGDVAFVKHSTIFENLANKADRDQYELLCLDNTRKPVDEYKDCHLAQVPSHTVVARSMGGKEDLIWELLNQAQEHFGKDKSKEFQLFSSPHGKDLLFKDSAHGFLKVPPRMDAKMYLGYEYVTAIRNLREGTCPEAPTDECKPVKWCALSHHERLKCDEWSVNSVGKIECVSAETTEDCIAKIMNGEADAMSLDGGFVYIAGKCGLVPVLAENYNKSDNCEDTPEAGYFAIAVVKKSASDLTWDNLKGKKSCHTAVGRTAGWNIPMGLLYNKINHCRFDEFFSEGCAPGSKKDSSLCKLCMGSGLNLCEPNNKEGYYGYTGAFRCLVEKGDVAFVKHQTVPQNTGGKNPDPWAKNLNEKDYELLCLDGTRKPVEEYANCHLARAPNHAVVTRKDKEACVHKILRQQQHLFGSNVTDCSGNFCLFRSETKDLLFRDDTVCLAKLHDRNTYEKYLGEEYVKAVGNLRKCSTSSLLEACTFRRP

In assay [1], “Kingella denitrificans HpuA, wild type (natural protein)” displayed a Kd of 2.9 µM and a stoichiometry N (HpuA per Hb4:Hp4 complex) of 2. In assay [2], the Kd was determined as 10.9 µM and the stoichiometry N (HpuA per Hb tetramer) was 2.

Turning to TbpAB (from UniProt Q9K0U9), in assay [3], the Kd was 0.0008 µM.

For the substance human haemoglobin (complex), the Kd was 6.1 µM in assay [4], 16 µM in assay [5], 150 µM in assay [6] and 10 µM in assay [7]. For the same substance, the stoichiometry N (Hb tetramers per HpuA) in assay [4] worked out at 0.5.
